The values that follow come from patent US20240376207A1 (JIANGSU HENGRUI PHARMACEUTICALS, published 2024).

Changes are numbered by the printed parent chain.

The labels stand for the following.
B1: humanized anti-PVRIG antibody 38H7 (antibody, human IgG4 S228P, F234A L235A, V domains shown)
VH: EVQLVESGGGVVQPGGSLRLSCAASPSTYGPSDMAWFRQAPGKQREGVATISAAGRLTYYTDSVRGRFTISRDNSKNTMYLQMNSLRAEDTAVYYCAADFAGGSSLFADYKYWGQGTMVTVSS
B2: humanized anti-PVRIG antibody 38H2 (antibody, human IgG4 S228P, F234A L235A, V domains shown)
VH: B1 VH with P26G, S27F, Y29F, G30S, Q44G, R45L, M79L
B3: humanized anti-PVRIG antibody 38H4 (antibody, human IgG4 S228P, F234A L235A, V domains shown)
VH: B1 VH with S27F, Q44G, R45L, M79L
B4: humanized anti-PVRIG antibody 30H3 (antibody, human IgG4 S228P, F234A L235A, V domains shown)
VH: EVQLVESGGGLVQPGGSLRLSCAASGYSYSGDCMGWFRQAPGKGLDEGVATIDNAGRIKYADSVKGRFTISRDNAKNSLYLQMNSLRAEDTAVYYCAAGWTFGGQCSPADWGQGTQVTVSS
B5: humanized anti-PVRIG antibody 151H9 (antibody, human IgG4 S228P, F234A L235A, V domains shown)
VH: HVQLVESGGGLVQPGGSLRLSCVASASGFTYRPYCMAWFRQAPGKGLEAVAGIDIFGGTTYADSVKGRFTASRDNAGFSLYLQMNSLRAEDTAVYYCAAGDSPDGRCPPLGQGLNYWGQGTMVTVSS
B6: humanized anti-PVRIG antibody 151H7 (antibody, human IgG4 S228P, F234A L235A, V domains shown)
VH: B5 VH with G46E, L47R
B7: humanized anti-PVRIG antibody 151H4 (antibody, human IgG4 S228P, F234A L235A, V domains shown)
VH: B5 VH with H1E, A71I, G77K, F78N
B8: humanized anti-PVRIG antibody 20H4 (antibody, human IgG4 S228P, F234A L235A, V domains shown)
VH: EVQLVESGGGLVQPGGSLRLSCAASGYTSRTDCMGWFRQAPGKGLEGVAHIDSDGIPRYVDSVKGRFTISQDHAKNSLYLQMNSLRAEDTAVYYCVVGFKFDEDYCAPNDWGQGTMVTVSS
B9: humanized anti-PVRIG antibody 20H3 (antibody, human IgG4 S228P, F234A L235A, V domains shown)
VH: B8 VH with S29F, R30S
B10: humanized anti-PVRIG antibody 20H2 (antibody, human IgG4 S228P, F234A L235A, V domains shown)
VH: B8 VH with Y27F, Q71R, H73N
B11: humanized anti-PVRIG antibody 20H1 (antibody, human IgG4 S228P, F234A L235A, V domains shown)
VH: B8 VH with Y27F, S29F, R30S, Q71R, H73N
B12: humanized anti-PVRIG antibody 39H4 (antibody, human IgG4 S228P, F234A L235A, V domains shown)
VH: EVQLVESGGGLVQPGGSLRLSCAASGYTSRTDCMGWFRQAPGKGLEGVAHIDSDGIPRYVESVKGRFTISQDHAKNSLYLQMNSLRAEDTAVYYCVVGFKFGDYCAPNDWGQGTMVTVSS
B13: humanized anti-PVRIG antibody 39H3 (antibody, human IgG4 S228P, F234A L235A, V domains shown)
VH: B12 VH with S29F, R30S
B14: humanized anti-PVRIG antibody 39H2 (antibody, human IgG4 S228P, F234A L235A, V domains shown)
VH: B12 VH with Y27F, Q71R, H73N
B15: humanized anti-PVRIG antibody 39H1 (antibody, human IgG4 S228P, F234A L235A, V domains shown)
VH: B12 VH with Y27F, S29F, R30S, Q71R, H73N
B16: humanized anti-PVRIG antibody 39H5 (antibody, human IgG4 S228P, F234A L235A, V domains shown)
VH: B12 VH with G44E, L45R
B17: humanized anti-PVRIG antibody 30H1 (antibody, human IgG4 S228P, F234A L235A, V domains shown)
VH: EVQLVESGGGLVQPGGSLRLSCAASGFTFSGDCMGWFRQAPGKGLEGVATIDNAGRIKYADSVKGRFTISRDNAKNSLYLQMNSLRAEDTAVYYCAAGWTFGGQCSPADWGQGTQVTVSS
B18: humanized anti-PVRIG antibody 38H9 (antibody, human IgG4 S228P, F234A L235A, V domains shown)
VH: B1 VH with Q44G, R45L
B19: humanized anti-PVRIG antibody 38H8 (antibody, human IgG4 S228P, F234A L235A, V domains shown)
VH: B1 VH with Q44G, R45L, M79L

One assay deals with T1, cynomolgus monkey PVRIG expressed on cells (cynomolgus monkey, UniProt A0A2K5WVV8 1-322).
T1 construct: whole, on cells; also called Monkey PVRIG FACS; cells overexpressing cynomolgus monkey PVRIG
T1 sequence: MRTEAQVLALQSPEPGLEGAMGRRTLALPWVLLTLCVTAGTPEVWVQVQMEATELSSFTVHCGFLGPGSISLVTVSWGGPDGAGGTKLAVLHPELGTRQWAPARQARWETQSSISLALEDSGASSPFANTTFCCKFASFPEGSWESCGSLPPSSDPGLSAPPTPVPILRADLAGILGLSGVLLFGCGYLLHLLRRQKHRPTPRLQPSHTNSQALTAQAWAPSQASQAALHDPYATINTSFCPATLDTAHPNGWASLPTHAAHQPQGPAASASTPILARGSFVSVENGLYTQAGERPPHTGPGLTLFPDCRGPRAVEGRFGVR
The assay is described as follows: FACS, HEK293 cells overexpressing target. As for the experimental part:
(§1) The expression plasmid carrying human or cynomolgus monkey PVRIG gene sequence was transfected into HEK293 cells, and the over-expressing stable transfection monoclonal cell strain was obtained by antibiotic screening and infinite dilution. Overexpressing cells were seeded into a 96-well plate at 2×10⁵ cells/per well. The cells were centrifuged at 300 g for 5 min, the supernatant was then removed, 100 μL of the test antibody was added, and the mixture was incubated at 4° C. for 1 h. The mixture was centrifuged, the supernatant was removed, the plate was washed 3 times with 200 μL of wash buffer (PBS+2% FBS), and then 100 μL of an anti-human IgG secondary antibody (Invitrogen, A-11013) labeled with Alexa Fluor 488 diluted at 1:500 was added. The mixture was incubated at 4° C. for 1 h. The plate was centrifuged, and the supernatant was removed. The plate was washed 3 times with 200 μL of wash buffer (PBS+2% FBS). The cells were resuspended in 100 μL of PBS and tested on a flow cytometer (BD FACS Calibur or BD FACS Canto_II).
(§2) Binding of the humanized anti-PVRIG antibodies to human or cynomolgus monkey PVRIG was detected by using a flow cytometer according to the method of Example 5.
B1: the midpoint of the response, the EC50, lay at 0.049 nM.
As to B2, the EC50 is 0.137 nM.
B3 registered an EC50 of 0.095 nM.
As for B4, the EC50 worked out at 0.003 nM.
B5: the EC50 came out at 3.94 nM.
For the molecule B6, a half-maximal response (EC50) required 0.467 nM.
Take B7: a half-maximal response (EC50) required 0.035 nM.
In turn, B8 showed an EC50 of 0.591 nM.
For B9, it took 1.5 nM to reach a half-maximal effect (EC50).
Molecule B10 came in with an EC50 of 0.338 nM.
In the case of B11, the EC50 stood at 0.658 nM.
As for B12, the EC50 is 0.006 nM.
Regarding B13, it took 0.348 nM to reach a half-maximal effect (EC50).
Molecule B14 came in with an EC50 of 0.019 nM.
Still for that read-out and setting: the value for B15 was 0.251 nM; that for B16 was 0.208 nM.
The molecule B17 returned an EC50 of 0.374 nM.

The target of the next assay is T2, human PVRIG expressed on cells (human, UniProt Q6DKI7 41-326).
T2 construct: whole, on cells; also called Human PVRIG FACS; cells overexpressing human PVRIG
T2 sequence (looked up): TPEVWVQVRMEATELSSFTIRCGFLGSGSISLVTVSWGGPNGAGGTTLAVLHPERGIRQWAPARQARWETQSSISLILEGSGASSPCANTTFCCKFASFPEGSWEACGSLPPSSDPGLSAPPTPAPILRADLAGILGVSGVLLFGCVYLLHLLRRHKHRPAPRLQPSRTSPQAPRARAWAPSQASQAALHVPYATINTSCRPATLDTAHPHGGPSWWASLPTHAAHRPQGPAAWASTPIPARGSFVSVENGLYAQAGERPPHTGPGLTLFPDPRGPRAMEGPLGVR
The assay is described as follows: FACS, HEK293 cells overexpressing target. As for the experimental part:
as §1, §2
For orientation: Flow cytometry measures light scatter and fluorescence of single cells or particles in a stream.
In the case of B18, a half-maximal response (EC50) required 0.068 nM.
In turn, B1 gave an EC50 of 0.04 nM.
B2: the EC50 came to 0.088 nM.
With B19, the EC50 was found to be 0.065 nM.
On the same count and under the same terms, the value for B3 was 0.062 nM.
On the same count and under the same terms, the value for B4 was 0.004 nM.
B5 had an EC50 of 0.004 nM.
Same read-out and setting: under B6 stands 0.002 nM.
The molecule B7 gave an EC50 of 0.24 nM.
In turn, B8 showed an EC50 of 0.008 nM.
On to B9, for which the midpoint of the response, the EC50, lay at 0.006 nM.
Take B10: the EC50 was 0.006 nM.
On the same count and under the same terms, under B11 stands 0.019 nM.
Molecule B12 came in with an EC50 of 0.005 nM.
In the case of B13, a half-maximal response (EC50) required 0.005 nM.
Same read-out and setting: the value for B14 was 0.006 nM; that for B15 was 0.004 nM.
B16 showed an EC50 of 0.006 nM.
B17 returned an EC50 of 0.024 nM.

A further assay has as its target T3, his-tagged human PVRIG (h-PVRIG-his) recombinant protein (human, UniProt Q6DKI7 41-171, limits assumed).
T3 construct: bought from Acrobiosystems; also called Human PVRIG-his; human PVRIG recombinant protein; not shown: his tag
T3 sequence (looked up): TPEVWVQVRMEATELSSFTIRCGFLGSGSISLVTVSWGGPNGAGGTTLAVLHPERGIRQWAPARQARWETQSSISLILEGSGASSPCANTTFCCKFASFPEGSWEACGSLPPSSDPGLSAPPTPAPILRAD
The assay is described as follows: BLI (Fortebio), antibody on Protein A sensor, 1:1 fit. As for the experimental part:
A Protein A biosensor (Fortebio, #18-5010) was immersed in 200 μL of KB buffer (PBS, pH 7.4, 0.02% tween-20, 0.1% BSA) for 60 s for the wetting treatment. Then, the anti-PVRIG antibody was diluted to 10 μg/mL with the KB buffer, and the sensor was immersed in 200 μL of the solution until the reading was 1.2 nm. The sensor was immersed in the KB buffer for 100 s to elute excess antibody. The his-tagged human PVRIG was diluted in a 2-fold gradient to 64 nM-4 nM with the KB buffer. The sensor was immersed in the solution for 300 s for binding. The sensor was immersed in the KB buffer for 600 s for dissociation. The data were fitted in a dynamic 1:1 binding mode.
The affinity of the humanized anti-PVRIG antibodies for human PVRIG was detected according to the method of Example 7. All the antibodies listed in the Table have high affinity for human PVRIG.
(In general: In BLI a coated tip is dipped into the sample, and binding shifts an interference pattern.)
On to B4, for which the Kd is 2.41 nM, the koff was found to be 0.000358 s⁻¹ and the kon amounted to 148000 M⁻¹ s⁻¹.
As to B6, the Kd was 1.2 nM, the koff came out at 0.000188 s⁻¹ and the kon was 157000 M⁻¹ s⁻¹.
Regarding B12, the Kd turned out to be 0.482 nM, the koff is 9.11e-05 s⁻¹ and the kon stood at 189000 M⁻¹ s⁻¹.
The matching figures for B14: 0.692 nM, 0.000124 s⁻¹ and 180000 M⁻¹ s⁻¹.
Regarding B15, the Kd was 3.28 nM, the koff is 0.000865 s⁻¹ and the kon was found to be 264000 M⁻¹ s⁻¹.

The next assay addresses T2, human PVRIG expressed on cells. The assay is described as follows: cell-based or functional assay.
With B4, the “PVRIG reporter gene cell activity EC50” value amounted to 0.078 nM.
Turning to B6, the “PVRIG reporter gene cell activity EC50” value was 0.038 nM.
For B7, the “PVRIG reporter gene cell activity EC50” value was found to be 3.55 nM.
B12: the “PVRIG reporter gene cell activity EC50” value stood at 0.094 nM.
For B14, the “PVRIG reporter gene cell activity EC50” value worked out at 0.074 nM.
Regarding B15, the “PVRIG reporter gene cell activity EC50” value is 0.191 nM.

For a further assay the target is unchanged. The assay is described as follows: cell-based or functional assay. The source holds these as a separate data set.
With B6, the “NK92 killing of K562, killing activity (%), 4 nM antibody” value (shortened to “NK92 killing … (%), 4 nM antibody”) came to 16.9%; the “NK92 killing of K562, killing activity (%), 20 nM antibody” value (shortened to “NK92 killing … (%), 20 nM antibody”) stood at 21%; the “NK92 killing of K562, killing activity (%), 100 nM antibody” value (“NK92 killing … (%), 100 nM antibody” below) was 18.4%.
For the molecule B14, the “NK92 killing … (%), 4 nM antibody” value is 15.3%; the “NK92 killing … (%), 20 nM antibody” value came out at 18.7%; the “NK92 killing … (%), 100 nM antibody” value amounted to 19.7%.
Consider B15, for which the “NK92 killing … (%), 4 nM antibody” value was 13.7%; the “NK92 killing … (%), 20 nM antibody” value worked out at 17.7%; the “NK92 killing … (%), 100 nM antibody” value came out at 21.2%.

As usually defined, the EC50 is the concentration at which the effect is half-maximal. Usually Kd stands for the constant that tells how readily two partners part at equilibrium. The term koff denotes a measure of how fast the partners let go of each other. As usually defined, the kon is the second-order rate constant of association.
